Source: IntAct's records for PubMed 31515488

B1: Fibronectin type III and SPRY domain-containing protein 2 (Homo sapiens), A1L4K1 (parent)
chain: MEEESGEELGLDRSTPKDFHFYHMDLYDSEDRLHLFPEENTRMRKVVQAEMANESRGAGDGKAQRDLQEEVDELVHLYGLEDDHELGDEFVDENIPRTGVSEYPPYMMKRRDPAREQRDWRLSGEAAEAEDLGFGGWGSAGQCQDLREAYRYTHGRASEEYECYVIPEEEDEEEAADVFCVTCKTPIRAFQKVFDEHKEHEVIPLNEALESAKDEIHKNMYKLEKQIIEMENFANHLEEVFITVEENFGKQEQNFESHYNEILETLAQKYEEKIQALGEKKKEKLEALYGQLVSCGENLDTCKELMETIEEMCHEEKVDFIKDAVAMADRLGKFLKTKTDVEISAQPEFEDQTLDFSDVEQLMGSINTIPAPSAPVINPQVPNSATGSSVRVCWSLYSDDTVESYQLSYRPVQDSSPGTDQAEFTVTVKETYCSVTNLVPNTQYEFWVTAHNRAGPSPSSERAVYMTAPSPPIIKTKEIRSCEEAVLICWESGNLNPVDSYTVELTQAESPEASGVTESVVGIPTCESVVQLQPGRSYIIYVRALNMGGPSVRSEPATVHTIGSYFRLNKDTCHPWLTISEDGLTAVRSERRTPARELSPSDTHFTRCVAVMGNLIPVRGHHYWEVEVDEHLDYRVGVAFADVRKQEDLGANCLSWCMRHTFASSRHKYEFLHNRTTPDIRITVPPKKIGILLDYEHSKLSFFNVDLSQHLYTFSCQLHEFVHPCFSLEKPGCLKVHNGISMPKHVTFY
B2: Tuftelin-interacting protein 11 (Homo sapiens), Q9UBB9 (parent)
chain: MSLSHLYRDGEGRIDDDDDERENFEITDWDLQNEFNPNRQRHWQTKEEATYGVWAERDSDDERPSFGGKRARDYSAPVNFISAGLKKGAAEEAELEDSDDEEKPVKQDDFPKDFGPRKLKTGGNFKPSQKGFAGGTKSFMDFGSWERHTKGIGQKLLQKMGYVPGRGLGKNAQGIINPIEAKQRKGKGAVGAYGSERTTQSMQDFPVVDSEEEAEEEFQKELSQWRKDPSGSKKKPKYSYKTVEELKAKGRISKKLTAPQKELSQVKVIDMTGREQKVYYSYSQISHKHNVPDDGLPLQSQQLPQSGKEAKAPGFALPELEHNLQLLIDLTEQEIIQNDRQLQYERDMVVNLFHELEKMTEVLDHEERVISNLSKVLEMVEECERRMQPDCSNPLTLDECARIFETLQDKYYEEYRMSDRVDLAVAIVYPLMKEYFKEWDPLKDCTYGTEIISKWKSLLENDQLLSHGGQDLSADAFHRLIWEVWMPFVRNIVTQWQPRNCDPMVDFLDSWVHIIPVWILDNILDQLIFPKLQKEVENWNPLTDTVPIHSWIHPWLPLMQARLEPLYSPIRSKLSSALQKWHPSDSSAKLILQPWKDVFTPGSWEAFMVKNIVPKLGMCLGELVINPHQQHMDAFYWVIDWEGMISVSSLVGLLEKHFFPKWLQVLCSWLSNSPNYEEITKWYLGWKSMFSDQVLAHPSVKDKFNEALDIMNRAVSSNVGAYMQPGARENIAYLTHTERRKDFQYEAMQERREAENMAQRGIGVAASSVPMNFKDLIETKAEEHNIVFMPVIGKRHEGKQLYTFGRIVIYIDRGVVFVQGEKTWVPTSLQSLIDMAK
partner: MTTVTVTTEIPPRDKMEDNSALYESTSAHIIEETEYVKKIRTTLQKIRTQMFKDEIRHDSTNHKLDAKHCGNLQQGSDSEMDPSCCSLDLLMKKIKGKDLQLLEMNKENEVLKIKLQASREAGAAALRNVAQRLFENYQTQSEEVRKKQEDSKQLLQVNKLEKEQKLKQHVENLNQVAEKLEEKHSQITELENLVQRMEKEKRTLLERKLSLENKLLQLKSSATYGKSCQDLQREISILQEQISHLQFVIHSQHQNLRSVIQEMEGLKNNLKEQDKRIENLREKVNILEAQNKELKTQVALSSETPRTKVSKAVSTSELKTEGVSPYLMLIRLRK
B3: Protein LDOC1 (Homo sapiens), O95751 (parent)
chain: MVDELVLLLHALLMRHRALSIENSQLMEQLRLLVCERASLLRQVRPPSCPVPFPETFNGESSRLPEFIVQTASYMLVNENRFCNDAMKVAFLISLLTGEAEEWVVPYIEMDSPILGDYRAFLDEMKQCFGWDDDEDDDDEEEEDDY
partner: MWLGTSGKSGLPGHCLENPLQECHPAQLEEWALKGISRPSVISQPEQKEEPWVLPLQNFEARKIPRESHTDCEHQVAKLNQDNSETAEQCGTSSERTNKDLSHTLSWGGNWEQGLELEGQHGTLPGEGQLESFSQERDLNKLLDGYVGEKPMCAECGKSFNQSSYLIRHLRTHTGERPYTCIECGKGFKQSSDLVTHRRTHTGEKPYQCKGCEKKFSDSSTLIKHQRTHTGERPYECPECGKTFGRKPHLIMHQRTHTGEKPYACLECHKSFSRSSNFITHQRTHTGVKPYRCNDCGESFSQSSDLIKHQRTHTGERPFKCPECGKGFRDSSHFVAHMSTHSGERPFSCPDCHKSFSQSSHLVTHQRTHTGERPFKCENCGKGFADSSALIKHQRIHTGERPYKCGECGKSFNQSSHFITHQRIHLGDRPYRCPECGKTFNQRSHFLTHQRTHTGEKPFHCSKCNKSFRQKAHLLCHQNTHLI
B4: Pre-B-cell leukemia transcription factor 4 (Homo sapiens), Q9BYU1 (parent)
chain: MAAPPRPAPSPPAPRRLDTSDVLQQIMAITDQSLDEAQARKHALNCHRMKPALFSVLCEIKEKTVVSIRGIQDEDPPDAQLLRLDNMLLAEGVCRPEKRGRGGAVARAGTATPGGCPNDNSIEHSDYRAKLSQIRQIYHSELEKYEQACREFTTHVTNLLQEQSRMRPVSPKEIERMVGAIHGKFSAIQMQLKQSTCEAVMTLRSRLLDARRKRRNFSKQATEVLNEYFYSHLNNPYPSEEAKEELARKGGLTISQVSNWFGNKRIRYKKNMGKFQEEATIYTGKTAVDTTEVGVPGNHASCLSTPSSGSSGPFPLPSAGDAFLTLRTLASLQPPPGGGCLQSQAQGSWQGATPQPATASPAGDPGSINSSTSN
partner: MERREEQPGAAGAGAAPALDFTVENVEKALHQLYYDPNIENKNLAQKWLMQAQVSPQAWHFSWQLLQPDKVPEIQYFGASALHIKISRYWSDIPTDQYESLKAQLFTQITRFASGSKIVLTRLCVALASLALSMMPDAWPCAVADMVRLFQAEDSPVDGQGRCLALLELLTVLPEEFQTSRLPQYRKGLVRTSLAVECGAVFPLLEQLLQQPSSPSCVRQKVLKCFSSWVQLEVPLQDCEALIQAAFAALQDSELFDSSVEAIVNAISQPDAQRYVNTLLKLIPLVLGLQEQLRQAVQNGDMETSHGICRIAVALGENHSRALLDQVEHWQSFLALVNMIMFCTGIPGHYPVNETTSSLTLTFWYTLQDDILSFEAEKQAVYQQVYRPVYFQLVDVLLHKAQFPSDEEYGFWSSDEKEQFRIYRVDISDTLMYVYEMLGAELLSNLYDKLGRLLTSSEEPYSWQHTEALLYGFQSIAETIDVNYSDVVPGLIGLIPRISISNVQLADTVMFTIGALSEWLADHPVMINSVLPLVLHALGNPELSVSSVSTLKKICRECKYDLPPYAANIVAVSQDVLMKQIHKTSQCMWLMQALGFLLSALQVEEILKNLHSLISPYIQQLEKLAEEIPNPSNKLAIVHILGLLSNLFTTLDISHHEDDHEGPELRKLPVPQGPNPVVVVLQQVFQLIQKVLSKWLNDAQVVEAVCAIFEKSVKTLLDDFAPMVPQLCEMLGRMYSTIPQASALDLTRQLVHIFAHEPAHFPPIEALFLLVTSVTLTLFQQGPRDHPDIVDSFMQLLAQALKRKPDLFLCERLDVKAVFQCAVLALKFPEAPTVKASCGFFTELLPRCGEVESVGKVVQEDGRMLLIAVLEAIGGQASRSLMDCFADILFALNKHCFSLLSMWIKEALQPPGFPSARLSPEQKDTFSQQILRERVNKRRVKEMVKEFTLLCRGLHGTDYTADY
B5: Isoform 1 of 1-aminocyclopropane-1-carboxylate synthase-like protein 1 (Homo sapiens), Q96QU6-1 (parent)
chain: MFTLPQKDFRAPTTCLGPTCMQDLGSSHGEDLEGECSRKLDQKLPELRGVGDPAMISSDTSYLSSRGRMIKWFWDSAEEGYRTYHMDEYDEDKNPSGIINLGTSENKLCFDLLSWRLSQRDMQRVEPSLLQYADWRGHLFLREEVAKFLSFYCKSPVPLRPENVVVLNGGASLFSALATVLCEAGEAFLIPTPYYGAITQHVCLYGNIRLAYVYLDSEVTGLDTRPFQLTVEKLEMALREAHSEGVKVKGLILISPQNPLGDVYSPEELQEYLVFAKRHRLHVIVDEVYMLSVFEKSVGYRSVLSLERLPDPQRTHVMWATSKDFGMSGLRFGTLYTENQDVATAVASLCRYHGLSGLVQYQMAQLLRDRDWINQVYLPENHARLKAAHTYVSEELRALGIPFLSRGAGFFIWVDLRKYLPKGTFEEEMLLWRRFLDNKVLLSFGKAFECKEPGWFRFVFSDQVHRLCLGMQRVQQVLAGKSQVAEDPRPSQSQEPSDQRR
partner: B5 chain
B6: Geminin (Homo sapiens), O75496 (parent)
chain: MNPSMKQKQEEIKENIKNSSVPRRTLKMIQPSASGSLVGRENELSAGLSKRKHRNDHLTSTTSSPGVIVPESSENKNLGGVTQESFDLMIKENPSSQYWKEVAEKRRKALYEALKENEKLHKEIEQKDNEIARLKKENKELAEVAEHVQYMAELIERLNGEPLDNFESLDNQEFDSEEETVEDSLVEDSEIGTCAEGTVSSSTDAKPCI
partner: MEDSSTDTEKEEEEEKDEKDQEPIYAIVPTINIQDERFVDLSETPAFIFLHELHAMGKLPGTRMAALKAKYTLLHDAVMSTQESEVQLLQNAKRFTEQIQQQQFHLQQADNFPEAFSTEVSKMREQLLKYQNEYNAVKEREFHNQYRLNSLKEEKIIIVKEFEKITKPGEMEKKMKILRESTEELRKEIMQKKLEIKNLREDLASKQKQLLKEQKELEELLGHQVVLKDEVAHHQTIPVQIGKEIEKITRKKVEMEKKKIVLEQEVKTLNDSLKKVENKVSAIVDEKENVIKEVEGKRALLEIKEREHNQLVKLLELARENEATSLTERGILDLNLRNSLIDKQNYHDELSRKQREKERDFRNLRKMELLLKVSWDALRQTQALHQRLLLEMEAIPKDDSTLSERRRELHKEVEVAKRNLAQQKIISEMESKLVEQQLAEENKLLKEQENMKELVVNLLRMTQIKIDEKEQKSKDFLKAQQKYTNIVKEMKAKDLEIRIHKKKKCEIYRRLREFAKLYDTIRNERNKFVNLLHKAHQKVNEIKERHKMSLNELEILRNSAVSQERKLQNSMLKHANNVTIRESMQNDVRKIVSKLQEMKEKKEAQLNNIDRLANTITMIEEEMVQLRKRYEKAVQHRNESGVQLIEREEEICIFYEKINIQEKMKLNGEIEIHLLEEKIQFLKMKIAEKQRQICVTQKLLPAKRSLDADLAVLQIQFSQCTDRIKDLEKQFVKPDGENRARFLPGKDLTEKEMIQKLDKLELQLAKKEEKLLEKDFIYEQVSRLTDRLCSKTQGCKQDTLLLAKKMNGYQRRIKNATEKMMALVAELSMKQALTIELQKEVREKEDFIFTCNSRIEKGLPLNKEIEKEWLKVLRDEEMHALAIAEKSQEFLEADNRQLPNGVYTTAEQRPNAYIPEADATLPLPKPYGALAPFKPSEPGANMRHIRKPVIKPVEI

Variants of: B1
Conditions: with cor1a_human CORO1A

| Variant | effect of a mutation on the interaction |
| --- | --- |
| K333T | with no effect |
| E720K | with no effect |

Variants of: B2
Conditions: with ccd68_human CCDC68, Q9H2F9

| Variant | effect of a mutation on the interaction |
| --- | --- |
| R8Q | with no effect |
| S688L | with no effect |

Variants of: B3
Conditions: with zn774_human ZNF774, Q6NX45

| Variant | effect of a mutation on the interaction |
| --- | --- |
| L12H | disrupting interaction strength |

Variants of: B4
Conditions: with ipo13_human IPO13, O94829

| Variant | effect of a mutation on the interaction |
| --- | --- |
| T154M | with no effect |
| T283M | with no effect |
| R327Q | with no effect |

Variants of: B5
Conditions: with 1a1l1_human ACCS

| Variant | effect of a mutation on the interaction |
| --- | --- |
| S393L | disrupting interaction strength |

Variants of: B6
Conditions: with cc146_human CCDC146, Q8IYE0

| Variant | effect of a mutation on the interaction |
| --- | --- |
| N15H | with no effect |
| E167D | with no effect |
